Results as given in publication PMC9303311.

B1: 5'FAM-PsDNA5 (XNA)
DNA: CGCCT
modifications: phosphorothioate at every internucleotide linkage, mixed Rp/Sp
B2: 5'FAM-ssDNA57 (ssDNA)
DNA: TGGAGAATCCCGGTGCCGAGGCCGCTCAATTGGTCGTAGACAGCTCTAGCACCGCTT

What was measured:
[1] = molecular target: SAMHD1 wild-type (Homo sapiens, UniProt Q9Y3Z3 1-626); test: fluorescence anisotropy
[2] = molecular target: SAMHD1 T592E (Homo sapiens, UniProt Q9Y3Z3 1-626, T592E); test: fluorescence anisotropy
SAMHD1 T592E, sequence (Q9Y3Z3 whole entry T592E): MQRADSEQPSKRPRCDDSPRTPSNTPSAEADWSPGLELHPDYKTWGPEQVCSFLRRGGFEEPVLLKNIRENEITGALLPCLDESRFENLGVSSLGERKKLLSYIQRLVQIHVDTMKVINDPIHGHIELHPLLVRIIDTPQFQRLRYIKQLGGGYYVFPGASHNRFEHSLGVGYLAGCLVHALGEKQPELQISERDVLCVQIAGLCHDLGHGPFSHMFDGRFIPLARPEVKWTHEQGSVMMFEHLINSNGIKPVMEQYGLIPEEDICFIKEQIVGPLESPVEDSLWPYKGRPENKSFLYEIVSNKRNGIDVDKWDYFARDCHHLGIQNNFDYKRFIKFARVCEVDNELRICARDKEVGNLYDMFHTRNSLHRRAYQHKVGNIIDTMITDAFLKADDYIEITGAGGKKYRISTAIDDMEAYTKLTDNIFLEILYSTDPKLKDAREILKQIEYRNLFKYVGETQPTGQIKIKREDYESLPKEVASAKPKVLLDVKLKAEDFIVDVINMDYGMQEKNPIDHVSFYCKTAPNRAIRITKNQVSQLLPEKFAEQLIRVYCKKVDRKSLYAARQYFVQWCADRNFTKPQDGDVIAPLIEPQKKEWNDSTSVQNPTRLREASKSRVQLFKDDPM

SAMHD1 wild-type, sequence (Q9Y3Z3 whole entry): as the sequence (Q9Y3Z3 whole entry T592E) above, with E592T counted along it

Row | Binder | Kd [1] [nM] | Kd [2] [nM]
1 | B1 | 119 ± 7 | 283 ± 8
2 | B2 | – | 431 ± 25
